T1: CD81 large extracellular loop (LEL) (UniProt P60033 113-201)
T1 construct: domain: large extracellular loop (LEL); not shown: C-terminal twin Strep tag
T1 sequence: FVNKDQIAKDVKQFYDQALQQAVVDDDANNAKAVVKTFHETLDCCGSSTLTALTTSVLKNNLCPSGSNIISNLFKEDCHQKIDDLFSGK

B1: sE2 design Triple (ΔHVR1-H445P-Y632NS) (other)
chain: KQNIQLINTNGSWHINSTALNCNESLNTGWLAGLFYQPKFNSSGCPERLASCRRLTDFAQGWGPISYANGSGLDERPYCWHYPPRPCGIVPAKSVCGPVYCFTPSPVVVGTTDRSGAPTYSWGANDTDVFVLNNTRPPLGNWFGCTWMNSTGFTKVCGAPPCVIGGVGNNTLLCPTDCFRKHPEATYSRCGSGPWITPRCMVDYPYRLWHYPCTINYTIFKVRMNVSGVEHRLEAACNWTRGERCDLEDRDRSE
B2: sE2 design H445P (other)
chain: ETHVTGGSAGRTTAGLVGLLTPGAKQNIQLINTNGSWHINSTALNCNESLNTGWLAGLFYQPKFNSSGCPERLASCRRLTDFAQGWGPISYANGSGLDERPYCWHYPPRPCGIVPAKSVCGPVYCFTPSPVVVGTTDRSGAPTYSWGANDTDVFVLNNTRPPLGNWFGCTWMNSTGFTKVCGAPPCVIGGVGNNTLLCPTDCFRKHPEATYSRCGSGPWITPRCMVDYPYRLWHYPCTINYTIFKVRMYVGGVEHRLEAACNWTRGERCDLEDRDRSE
B3: sE2 design Y632NS (Y632N-G634S) (other)
chain: B2 chain with P62H, Y249N, G251S
B4: wild-type soluble E2 (sE2), HCV isolate H77C, residues 384-661 (other)
chain: B2 chain with P62H

Residue numbers refer to the chain shown, from its start. Names and notes keep the numbering of the source.

The test addresses T1, CD81 large extracellular loop (LEL). Nature of the test: BLI (Octet RED96), His6-tagged sE2 on Ni-NTA biosensors, CD81-LEL in solution. Background: In BLI a coated tip is dipped into the sample, and binding shifts an interference pattern.
Turning to B1, the binding result is “binds”.

For the molecule B2, the binding result is “binds”.

Take B3: the binding result is “binds”.

Consider B4, for which the binding result was “binds”.

These data come from patent US20220054630A1 (UNIVERSITY OF MARYLAND COLLEGE PARK, published 2022).
